Consider three substances from paper PMC9481464.

In this assay the target is GTP. Put plainly: GTP pull-down, quantified blot. Particulars: + Mg2+; co-expressed with HA-RagC S75N; read off a plot.
Take RagB^long (from UniProt Q5VZM2) Q127L: the response (relative to RagBlong Q127L (set to 1)) was found to be 1.

Regarding “RagB^long (from UniProt Q5VZM2) Q127L; D96A”, the response (relative to RagBlong Q127L (set to 1)) was 0.9.

As for “RagB^long (from UniProt Q5VZM2) Q127L; L94A”, the response (relative to RagBlong Q127L (set to 1)) turned out to be 1.8.
